Series [1] in a line: Effects on body weight and physiological characteristics of mice. The note with it: 1 mg/kg s.c. once every three days, three times.
Protocol: SPF grade Balb/c mice were purchased, with 3 mice in each group. Administration was started on the day of grouping. The test substance or PBS (negative control group) was administered subcutaneously at a dose of 1 mg/kg, once every three days, for a total of three times. The mice were weighed before each administration and three days after the third administration .
For the next series, the system named is Treg cells. Kind of series: P-STAT5 activation in Treg cells of human PBMCs (flow cytometry). The series is classed as cell-based. The note with it: P-STAT5 MFI in CD3+/CD4+/CD25+ cells of human PBMCs, 30 min stimulation. The protocol: In the example, the activation effect of each mutant prepared in Example 6 on P-STAT5 in different cell subsets (Tregs, CD8+T cells, NK cells) from human PBMCs (Miaoshun Biotechnology) was detected.
Human PBMC cells were thawed and resuspended to 1.5×10^6 cells/ml in RPMI1640 medium containing 10% FBS. 100 µl was added to each well of a V-bottom 96-well culture plate. Each IL-2 mutant prepared in Example 6 was diluted 10-fold in series: 1000 nM was used as the working concentration for the first well, and then 100 µl/well of each serial dilution was added to each cultured cell, stimulated at 37°C for 30 min, and the reaction was terminated on ice. The cells were treated with a commercial fixative and permeabilization agent (BD biosciences 558049 & 558050), and stained with antibodies against CD3, CD4, CD25, and CD8 according to conventional methods. P-STAT5 antibody staining was also performed (Table 7) to detect the mean fluorescence intensity (MFI) of P-STAT5 in CD3+/CD4+/CD25+ (Treg cells) and CD8+/CD3+ cells ([…]) by flow cytometry.

The nature of series [2]: Pharmacokinetic study in mice, single administration, plasma concentration by ELISA. The note with it: 1 mg/kg s.c. single administration. (In general: In an ELISA, binding on a coated surface is turned into a signal by an enzyme label.)
Protocol: Balb/c mice were purchased, with 4 mice in each group. Each IL-2 mutant to be tested was administered subcutaneously once at a dose of 1 mg/kg. Blood was collected from the orbit at different time points after administration, and the plasma was separated and the plasma drug concentration was detected by ELISA. The main pharmacokinetic parameters were calculated, and C-T curve was plotted.
Series [3] has as its target T1, IL-2Rαβγ triple receptor (UniProt P01589 22-272; P14784 27-551; P31785 23-369).
T1 sequence (looked up) 1: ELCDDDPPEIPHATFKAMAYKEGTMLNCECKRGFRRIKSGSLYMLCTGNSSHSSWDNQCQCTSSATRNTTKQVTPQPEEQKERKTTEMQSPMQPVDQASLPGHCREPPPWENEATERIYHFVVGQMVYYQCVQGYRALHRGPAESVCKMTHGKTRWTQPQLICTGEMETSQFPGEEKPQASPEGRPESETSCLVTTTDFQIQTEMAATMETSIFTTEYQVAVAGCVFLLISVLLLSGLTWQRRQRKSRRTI
T1 sequence (looked up) 2: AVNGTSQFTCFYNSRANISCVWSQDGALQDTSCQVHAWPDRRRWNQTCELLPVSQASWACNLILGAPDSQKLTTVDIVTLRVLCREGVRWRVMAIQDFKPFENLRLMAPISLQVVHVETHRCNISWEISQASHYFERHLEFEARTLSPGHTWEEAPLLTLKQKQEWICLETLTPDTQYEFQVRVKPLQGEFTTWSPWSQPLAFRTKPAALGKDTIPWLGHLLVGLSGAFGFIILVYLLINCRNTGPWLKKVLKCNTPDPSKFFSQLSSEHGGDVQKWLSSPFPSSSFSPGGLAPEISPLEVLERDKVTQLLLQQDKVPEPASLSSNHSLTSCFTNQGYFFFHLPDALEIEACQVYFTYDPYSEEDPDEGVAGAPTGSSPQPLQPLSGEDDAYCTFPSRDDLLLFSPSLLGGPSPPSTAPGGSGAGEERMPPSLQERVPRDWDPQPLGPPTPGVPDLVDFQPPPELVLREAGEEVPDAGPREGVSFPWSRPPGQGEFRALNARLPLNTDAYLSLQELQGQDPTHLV
T1 sequence (looked up) 3: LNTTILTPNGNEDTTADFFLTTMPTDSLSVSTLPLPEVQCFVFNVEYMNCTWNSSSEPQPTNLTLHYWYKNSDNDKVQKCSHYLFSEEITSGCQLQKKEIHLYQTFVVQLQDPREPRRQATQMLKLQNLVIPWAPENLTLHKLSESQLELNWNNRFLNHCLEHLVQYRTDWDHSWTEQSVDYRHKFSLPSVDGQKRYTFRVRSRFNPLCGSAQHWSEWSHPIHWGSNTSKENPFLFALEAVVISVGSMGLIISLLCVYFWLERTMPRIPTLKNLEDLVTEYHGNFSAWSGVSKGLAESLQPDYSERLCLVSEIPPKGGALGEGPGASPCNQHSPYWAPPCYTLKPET
Put plainly: cell-based or functional assay.

The target of series [4] is T1, IL-2Rαβγ triple receptor. Kind of series: cell-based or functional assay. This is another data set of the same source.
The target in series [5] is T1, IL-2Rαβγ triple receptor. Kind of series: cell-based or functional assay. The source holds these as a separate data set.

Like-named read-outs stand apart in the source and are kept apart here. Side chains are listed from the residue outwards. maleimide = maleimide group on PEG that conjugates to a cysteine thiol

“80K-1PEG-IL2-N88R-D109C: IL-2 mutant N88R, D109C, conjugation site 109, PEG molecular weight 80kD”: in series [1], the “toxic side effects on mice” value is listed as “relatively obvious toxic side effects” and the “visual observation of the mice” value is “listless, had poor motility”. In addition, the “body weight compared with negative control” value in series [1] (three days after the third dose) is listed as “significantly lower than that of the negative control”.

“40K-1PEG-IL2-N88R-N77C: IL2-N88R-N77C with 40 kDa PEG conjugated to the cysteine at position 77” gave an EC50 with Treg cells of 38000 pM. In series [2], this molecule displayed an AUC inf of 307.71336 ± 53.89144 µg·h/mL, an AUClast of 306.70767 ± 53.98797 µg·h/mL, a CL of 3.32±0.5 and a maximum concentration (Cmax) of 6581.76 ± 1168.04 ng/mL. Moreover, in series [2], the MRT was determined as 31.57 ± 1.16 h, the T1/2 came out at 11.33 ± 0.97 h and the Tmax lay in the range of 8 to 24 h.

On to “rh IL-2 (from UniProt P60568 21-153) (ligand)”, for which, in the series with IL-2Rαβγ triple receptor [3], the Activation of IL-2αβγ receptor EC50 (STAT5 luciferase reporter gene assay) came to 8.48 pM, the Activation of IL-2αβγ triple receptor EC50 (STAT5 luciferase reporter gene assay) is 4.11 pM and the EC50 for activation of the IL-2αβγ triple receptor (STAT5 luciferase reporter gene assay) turned out to be 5.43 pM.

B1: 20K-1PEG-IL2-N88R-N77C: IL-2 mutant N88R, N77C, conjugation site 77, PEG molecular weight 20kD (conjugate)
chain: APTSSSTKKTQLQLEHLLLDLQMILNGINNYKNPKLTRMLTFKFYMPKKATELKHLQCLEEELKPLEEVLNLAQSKC(PEG 20 kDa)FHLRPRDLISRINVIVLELKGSETTFMCEYADETATIVEFLNRWITFSQSIISTLT
Turning to B1, the response in the series on Treg cells was half-maximal at 6140 pM (EC50). Besides, in series [2], the AUC inf was 22.88236 ± 3.52254 µg·h/mL, the AUClast came to 21.76228 ± 3.58639 µg·h/mL, the CL is reported as 44.4±6.99 and the Cmax was found to be 1276.71 ± 273.3 ng/mL. In addition, in series [2], the MRT was 11.68 ± 0.08 h, the T1/2 was 7.62 ± 0.57 h and the time to peak (Tmax) was 4 to 8 h.

B2: 20K-1PEG-IL2-N88R-D109C (ligand)
chain: APTSSSTKKTQLQLEHLLLDLQMILNGINNYKNPKLTRMLTFKFYMPKKATELKHLQCLEEELKPLEEVLNLAQSKNFHLRPRDLISXINVIVLELKGSETTFMCEYAXETATIVEFLNRWITFSQSIISTLT
modifications: not fully specified; one 20 kD PEG-maleimide conjugated to Cys 109
Take B2: the “EC50 for activation of the IL-2αβγ triple receptor (STAT5 luciferase reporter gene assay)” value with IL-2Rαβγ triple receptor [4] worked out at 78.6 pM.

B3: 80K-1PEG-IL2-N88R-D109C (ligand)
chain: B2 chain
modifications: one 80 kD PEG-maleimide conjugated to Cys 109
As to B3, the “EC50 for activation of the IL-2αβγ triple receptor (STAT5 luciferase reporter gene assay)” value in the series with IL-2Rαβγ triple receptor [4] came out at 407 pM.

B4: 80k-1PEG-IL2-N88R-N33C (ligand)
chain: APTSSSTKKTQLQLEHLLLDLQMILNGINNYKC(PEG 80 kDa)PKLTRMLTFKFYMPKKATELKHLQCLEEELKPLEEVLNLAQSKNFHLRPRDLISRINVIVLELKGSETTFMCEYADETATIVEFLNRWITFSQSIISTLT
Take B4: the “EC50 for activation of the IL-2αβγ triple receptor (STAT5 luciferase reporter gene assay, 293EC18/αβγ/JAK3/STAT5 cells)” value with IL-2Rαβγ triple receptor [5] worked out at 3.86 pM.

B5: 80k-1PEG-IL2-N88R-S75C (ligand)
chain: APTSSSTKKTQLQLEHLLLDLQMILNGINNYKNPKLTRMLTFKFYMPKKATELKHLQCLEEELKPLEEVLNLAQC(PEG 80 kDa)KNFHLRPRDLISRINVIVLELKGSETTFMCEYADETATIVEFLNRWITFSQSIISTLT
Consider B5, for which, in the series with IL-2Rαβγ triple receptor [5], the “EC50 for activation of the IL-2αβγ triple receptor (STAT5 luciferase reporter gene assay, 293EC18/αβγ/JAK3/STAT5 cells)” value was determined as 1260 pM.

B6: 20K-1PEG-IL2-N88R-N77C (ligand)
chain: APTSSSTKKTQLQLEHLLLDLQMILNGINNYKNPKLTRMLTFKFYMPKKATELKHLQCLEEELKPLEEVLNLAQSKC([maleimide-PEG 20 kDa])FHLRPRDLISRINVIVLELKGSETTFMCEYADETATIVEFLNRWITFSQSIISTLT
modifications: not fully specified
On to B6, for which the “EC50 for activation of the IL-2αβγ triple receptor (STAT5 luciferase reporter gene assay)” value with IL-2Rαβγ triple receptor [4] was determined as 70.5 pM.

B7: 80K-1PEG-IL2-N88R-N77C (ligand)
chain: APTSSSTKKTQLQLEHLLLDLQMILNGINNYKNPKLTRMLTFKFYMPKKATELKHLQCLEEELKPLEEVLNLAQSKC(PEG 80 kDa)FHLRPRDLISRINVIVLELKGSETTFMCEYADETATIVEFLNRWITFSQSIISTLT
For the molecule B7, the “EC50 for activation of the IL-2αβγ triple receptor (STAT5 luciferase reporter gene assay, 293EC18/αβγ/JAK3/STAT5 cells)” value in the series with IL-2Rαβγ triple receptor [5] was found to be 184 pM. Further, the “EC50 for activation of the IL-2αβγ triple receptor (STAT5 luciferase reporter gene assay)” value in the series with IL-2Rαβγ triple receptor [4] is 246 pM.

Broadly, the EC50 is the concentration giving half of the maximal effect. One may read the Cmax as the maximum level reached in the sampled fluid or tissue. A word on the MRT: it is the average time that molecules of a dose stay in the body. One may read the Tmax as the time from dosing to the highest level.

(Values after patent EP4631972A1, “SITE-SPECIFIC COUPLED PEGYLATED INTERLEUKIN-2 MUTANT WITH RECEPTOR AFFINITY PREFERENCE AND USE THEREOF” (priority 2022, dated 2024).)
